T1: cynomolgus monkey FcγRIIb extracellular domain with C-terminal His-tag (cynomolgus monkey)
T1 construct: also called cyno FcgRIIb; cynoFcγRIIb
T1 chain: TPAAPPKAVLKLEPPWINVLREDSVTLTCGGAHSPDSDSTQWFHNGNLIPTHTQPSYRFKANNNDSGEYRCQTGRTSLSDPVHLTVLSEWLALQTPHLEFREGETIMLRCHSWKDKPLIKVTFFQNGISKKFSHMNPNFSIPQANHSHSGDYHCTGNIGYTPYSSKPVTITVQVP

T2: human FcγRIIb extracellular domain with C-terminal His-tag (human, UniProt P31994 43-217)
T2 construct: also called human FcgRIIb
T2 sequence: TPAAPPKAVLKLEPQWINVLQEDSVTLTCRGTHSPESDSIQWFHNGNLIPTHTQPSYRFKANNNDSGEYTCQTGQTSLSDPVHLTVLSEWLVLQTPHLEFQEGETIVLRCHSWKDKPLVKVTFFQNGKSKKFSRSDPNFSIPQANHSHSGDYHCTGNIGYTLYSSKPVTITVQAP

T3: cynomolgus monkey FcγRIIa3 extracellular domain with C-terminal His-tag (cynomolgus monkey)
T3 construct: also called cyno FcgRIIa3; cynoFcγRIIa3
T3 chain: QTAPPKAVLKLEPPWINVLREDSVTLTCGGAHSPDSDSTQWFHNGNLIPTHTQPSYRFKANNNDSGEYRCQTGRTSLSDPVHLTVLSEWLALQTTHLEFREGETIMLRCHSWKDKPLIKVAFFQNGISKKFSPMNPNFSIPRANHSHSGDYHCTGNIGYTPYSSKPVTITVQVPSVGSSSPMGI

T4: cynomolgus monkey FcγRIIIaS extracellular domain with C-terminal His-tag (cynomolgus monkey, UniProt Q8SPW2 21-206 at identity 1.00))
T4 construct: also called cyno FcgRIIIaS; cynoFcγRIIIaS
T4 chain: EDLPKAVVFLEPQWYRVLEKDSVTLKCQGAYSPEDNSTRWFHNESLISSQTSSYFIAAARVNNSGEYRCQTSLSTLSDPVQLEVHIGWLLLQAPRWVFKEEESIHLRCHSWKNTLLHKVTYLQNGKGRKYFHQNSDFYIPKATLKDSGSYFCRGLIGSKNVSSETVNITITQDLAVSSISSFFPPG

T5: cynomolgus monkey FcγRIIa2 extracellular domain with C-terminal His-tag (cynomolgus monkey)
T5 construct: also called cyno FcgRIIa2; cynoFcγRIIa2
T5 chain: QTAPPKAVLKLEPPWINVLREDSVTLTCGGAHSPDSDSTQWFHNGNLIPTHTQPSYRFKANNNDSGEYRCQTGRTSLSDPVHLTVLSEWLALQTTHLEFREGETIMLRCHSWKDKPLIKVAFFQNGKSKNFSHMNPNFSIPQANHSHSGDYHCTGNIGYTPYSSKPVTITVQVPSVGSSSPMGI

T6: human FcγRIIaH extracellular domain with C-terminal His-tag (human, UniProt P12318 34-217)
T6 construct: also called human FcgRIIaH; FcγRIIa (type H)
T6 sequence: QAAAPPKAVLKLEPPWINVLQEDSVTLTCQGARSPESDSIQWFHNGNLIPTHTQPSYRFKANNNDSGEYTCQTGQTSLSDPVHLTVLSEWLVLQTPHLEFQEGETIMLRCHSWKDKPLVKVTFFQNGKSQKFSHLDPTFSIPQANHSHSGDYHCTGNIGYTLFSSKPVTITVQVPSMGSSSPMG

T7: cynomolgus monkey FcγRIIa1 extracellular domain with C-terminal His-tag (cynomolgus monkey)
T7 construct: also called cyno FcgRIIa1; cynoFcγRIIa1
T7 chain: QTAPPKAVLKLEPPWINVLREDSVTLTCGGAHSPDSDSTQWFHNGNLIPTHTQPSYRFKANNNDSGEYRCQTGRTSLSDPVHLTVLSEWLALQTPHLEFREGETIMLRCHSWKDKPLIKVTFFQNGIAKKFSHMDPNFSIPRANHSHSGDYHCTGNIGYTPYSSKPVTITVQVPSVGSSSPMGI


Experiments:
Assay in all cases: SPR (BIACORE); KD of SG1 / KD of variant;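 further: relative to parent M103205H795-SG1 carrying the SG1 human heavy chain constant region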
[1] = target: T8, human FcγRIIIaV extracellular domain with C-terminal His-tag (human, UniProt P08637 17-208)
T8 construct: also called human FcgRIIIaV

[2] = target: T1, cynomolgus monkey FcγRIIb extracellular …
[3] = target: T2, human FcγRIIb extracellular domain with …
[4] = target: T3, cynomolgus monkey FcγRIIa3 …
[5] = target: T4, cynomolgus monkey FcγRIIIaS …
[6] = target: T5, cynomolgus monkey FcγRIIa2 …
[7] = target: T6, human FcγRIIaH extracellular domain …
[8] = target: T7, cynomolgus monkey FcγRIIa1 …

T8 sequence (P08637 17-208 F176V): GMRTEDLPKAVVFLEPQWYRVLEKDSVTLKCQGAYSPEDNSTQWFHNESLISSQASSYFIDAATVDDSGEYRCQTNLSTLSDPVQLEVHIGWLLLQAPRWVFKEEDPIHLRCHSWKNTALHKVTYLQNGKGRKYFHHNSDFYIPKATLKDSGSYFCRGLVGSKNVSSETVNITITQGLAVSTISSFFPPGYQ

Binder | KD fold (SG1 = 1) [1] [fold] | KD fold (SG1 = 1) [2] [fold] | KD fold (SG1 = 1) [3] [fold] | KD fold (SG1 = 1) [4] [fold] | KD fold (SG1 = 1) [5] [fold] | KD fold (SG1 = 1) [6] [fold] | KD fold (SG1 = 1) [7] [fold] | KD fold (SG1 = 1) [8] [fold]
M103205H795-MY521/M103202L889-SK1 (antibody, human IgG1, kappa, Substitutions introduced into M103205H795-SG1, expressed with M103202L889-SK1 as light chain; EU numbering) heavy: QVTLKESGPVLVKPTETLTLTCTVSGIDLSHDDISWVRQAPGKGLEWVGIISYAGSTYYASWAKGRLTISKDTSKNQVVLTMTNMDPVDTATYYCARGVPAYSHGGDLWGQGTLVTVSSASTKGPSVFPLAPSSKSTSGGTAALGCLVKDYFPEPVTVSWNSGALTSGVHTFPAVLQSSGLYSLSSVVTVPSSSLGTQTYICNVNHKPSNTKVDKKVEPKSCDKTHTCPPCPADELLTGPSVFLFPPKPKDTLMISRTPEVTCVVVDVSDEDPEVKFNWYVDGVEVHNAKTKPREELYNSTYRVVSVLTVLHQDWLNGKEYKCKVSNKALPKPIEKTISKAKGQPREPQVYTLPPSREEMTKNQVSLTCLVKGFYPSDIAVEWESNGQPENNYKTTPPVLDSDGSFFLYSKLTVDKSRWQQGNVFSCSVMHEALHNHYTQKSLSLSP light: DIVMTQSPATLSLSPGERATLSCTSSQSVYHANWLSWFQQKPGQPPKLLIYWASTLAYGVPSRFSGSGSGTDFTLTISSLQPEDAATYYCAGGYGGGRYAFGQGTKVEIKRTVAAPSVFIFPPSDEQLKSGTASVVCLLNNFYPREAKVQWKVDNALQSGNSQESVTEQDSKDSTYSLSSTLTLSKADYEKHKVYACEVTHQGLSSPVTKSFNRGEC | 0.16 | 2.9 | 3.2 | 3.9 | 0.16 | 1.5 | 2.4 | 1.3
M103205H795-MY522/M103202L889-SK1 (antibody, human IgG1, kappa, Substitutions introduced into M103205H795-SG1, expressed with M103202L889-SK1 as light chain; EU numbering) heavy: QVTLKESGPVLVKPTETLTLTCTVSGIDLSHDDISWVRQAPGKGLEWVGIISYAGSTYYASWAKGRLTISKDTSKNQVVLTMTNMDPVDTATYYCARGVPAYSHGGDLWGQGTLVTVSSASTKGPSVFPLAPSSKSTSGGTAALGCLVKDYFPEPVTVSWNSGALTSGVHTFPAVLQSSGLYSLSSVVTVPSSSLGTQTYICNVNHKPSNTKVDKKVEPKSCDKTHTCPPCPGPELLTGPVVFLFPPKPKDTLMISRTPEVTCVVVDVSDEDPEVKFNWYVDGVEVHNAKTKPREEQYNSTYRVVSVLTVLHQDWLNGKEYKCKVSNKALPKPIEKTISKAKGQPREPQVYTLPPSREEMTKNQVSLTCLVKGFYPSDIAVEWESNGQPENNYKTTPPVLDSDGSFFLYSKLTVDKSRWQQGNVFSCSVMHEALHNHYTQKSLSLSP light: DIVMTQSPATLSLSPGERATLSCTSSQSVYHANWLSWFQQKPGQPPKLLIYWASTLAYGVPSRFSGSGSGTDFTLTISSLQPEDAATYYCAGGYGGGRYAFGQGTKVEIKRTVAAPSVFIFPPSDEQLKSGTASVVCLLNNFYPREAKVQWKVDNALQSGNSQESVTEQDSKDSTYSLSSTLTLSKADYEKHKVYACEVTHQGLSSPVTKSFNRGEC | 0.14 | 3.4 | 4.2 | 18.3 | 0.19 | 4.3 | 2.9 | 1.9
M103205H795-MY523/M103202L889-SK1 (antibody, human IgG1, kappa, Substitutions introduced into M103205H795-SG1, expressed with M103202L889-SK1 as light chain; EU numbering) heavy: QVTLKESGPVLVKPTETLTLTCTVSGIDLSHDDISWVRQAPGKGLEWVGIISYAGSTYYASWAKGRLTISKDTSKNQVVLTMTNMDPVDTATYYCARGVPAYSHGGDLWGQGTLVTVSSASTKGPSVFPLAPSSKSTSGGTAALGCLVKDYFPEPVTVSWNSGALTSGVHTFPAVLQSSGLYSLSSVVTVPSSSLGTQTYICNVNHKPSNTKVDKKVEPKSCDKTHTCPPCPGPELLTGPVVFLFPPKPKDTLMISRTPEVTCVVVDVSDEDPEVKFNWYVDGVEVHNAKTKPREELYNSTYRVVSVLTVLHQDWLNGKEYKCKVSNKALPKPIEKTISKAKGQPREPQVYTLPPSREEMTKNQVSLTCLVKGFYPSDIAVEWESNGQPENNYKTTPPVLDSDGSFFLYSKLTVDKSRWQQGNVFSCSVMHEALHNHYTQKSLSLSP light: DIVMTQSPATLSLSPGERATLSCTSSQSVYHANWLSWFQQKPGQPPKLLIYWASTLAYGVPSRFSGSGSGTDFTLTISSLQPEDAATYYCAGGYGGGRYAFGQGTKVEIKRTVAAPSVFIFPPSDEQLKSGTASVVCLLNNFYPREAKVQWKVDNALQSGNSQESVTEQDSKDSTYSLSSTLTLSKADYEKHKVYACEVTHQGLSSPVTKSFNRGEC | 0.15 | 3.8 | 4.2 | 15.5 | 0.17 | 3.9 | 3.6 | 2.3
M103205H795-MY524/M103202L889-SK1 (antibody, human IgG1, kappa, Substitutions introduced into M103205H795-SG1, expressed with M103202L889-SK1 as light chain; EU numbering) heavy: QVTLKESGPVLVKPTETLTLTCTVSGIDLSHDDISWVRQAPGKGLEWVGIISYAGSTYYASWAKGRLTISKDTSKNQVVLTMTNMDPVDTATYYCARGVPAYSHGGDLWGQGTLVTVSSASTKGPSVFPLAPSSKSTSGGTAALGCLVKDYFPEPVTVSWNSGALTSGVHTFPAVLQSSGLYSLSSVVTVPSSSLGTQTYICNVNHKPSNTKVDKKVEPKSCDKTHTCPPCPGPELLTGPSVFLFPPKPKDTLMISRTPEVTCVVVDVSDEDPEVKFNWYVDGVEVHNAKTKPREELYNSTYRVVSVLTVLHQDWLNGKEYKCKVSNKALPKPIEKTISKAKGQPREPQVYTLPPSREEMTKNQVSLTCLVKGFYPSDIAVEWESNGQPENNYKTTPPVLDSDGSFFLYSKLTVDKSRWQQGNVFSCSVMHEALHNHYTQKSLSLSP light: DIVMTQSPATLSLSPGERATLSCTSSQSVYHANWLSWFQQKPGQPPKLLIYWASTLAYGVPSRFSGSGSGTDFTLTISSLQPEDAATYYCAGGYGGGRYAFGQGTKVEIKRTVAAPSVFIFPPSDEQLKSGTASVVCLLNNFYPREAKVQWKVDNALQSGNSQESVTEQDSKDSTYSLSSTLTLSKADYEKHKVYACEVTHQGLSSPVTKSFNRGEC | 0.18 | 5.8 | 4.5 | 6.3 | 0.18 | 4.6 | 6.3 | 3.2

Reference: US20200317768A1 (published 2020)
